Laboratory results: article PMC5585171

Target: Medicago truncatula L-histidinol dehydrogenase (Medicago truncatula)
Assay: SEC; HiLoad Superdex 200 16/60; 25 mM Hepes-NaOH pH 7.5, 100 mM KCl, 50 mM NaCl, 1 mM TCEP; data not shown

Question: Which stoichiometry N does the source give for “Medicago truncatula L-histidinol dehydrogenase (enzyme)” here?
Answer: 2
